# T1: his-tagged cynomolgus-IL7R extracellular domain construct (cynomolgus, UniProt Q38IC7 21-240)
# T1 construct: also called cyno IL-7Rα; not shown: his tag
# T1 sequence: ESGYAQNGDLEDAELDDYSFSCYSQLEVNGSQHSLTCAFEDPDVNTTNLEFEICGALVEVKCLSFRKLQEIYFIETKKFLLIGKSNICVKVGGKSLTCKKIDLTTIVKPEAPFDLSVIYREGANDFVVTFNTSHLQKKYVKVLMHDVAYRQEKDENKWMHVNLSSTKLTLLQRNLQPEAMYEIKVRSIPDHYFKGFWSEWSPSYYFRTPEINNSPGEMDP
# T2: his-tagged human-IL7R extracellular domain construct (human, UniProt P16871 21-239)
# T2 construct: Generated in house; also called human IL-7Rα; not shown: his tag
# T2 chain: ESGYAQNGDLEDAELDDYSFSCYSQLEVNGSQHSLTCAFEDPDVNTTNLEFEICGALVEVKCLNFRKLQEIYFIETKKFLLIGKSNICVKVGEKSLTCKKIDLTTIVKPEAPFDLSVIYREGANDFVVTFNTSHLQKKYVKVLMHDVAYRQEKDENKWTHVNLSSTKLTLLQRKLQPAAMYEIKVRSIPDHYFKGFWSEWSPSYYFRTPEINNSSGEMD
# T3: human IL-7Rα expressed on human T cells (whole blood / PBMCs) (human, UniProt P16871 21-239)
# T3 construct: Native receptor on primary cells; also called CD127
# T3 chain: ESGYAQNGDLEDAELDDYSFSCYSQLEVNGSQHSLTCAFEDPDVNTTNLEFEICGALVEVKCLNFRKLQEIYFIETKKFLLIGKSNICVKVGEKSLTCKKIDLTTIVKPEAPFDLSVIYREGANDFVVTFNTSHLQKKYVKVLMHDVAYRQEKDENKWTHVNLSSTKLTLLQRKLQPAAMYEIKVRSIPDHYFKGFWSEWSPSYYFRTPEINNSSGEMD
# T4: hIL-7R (Example 11) (human, UniProt P16871 21-239)
# T4 construct: Called full length hIL-7R for the mRNA display and hIL-7R for the Biacore runs; also called full length hIL-7R; human IL-7R
# T4 chain: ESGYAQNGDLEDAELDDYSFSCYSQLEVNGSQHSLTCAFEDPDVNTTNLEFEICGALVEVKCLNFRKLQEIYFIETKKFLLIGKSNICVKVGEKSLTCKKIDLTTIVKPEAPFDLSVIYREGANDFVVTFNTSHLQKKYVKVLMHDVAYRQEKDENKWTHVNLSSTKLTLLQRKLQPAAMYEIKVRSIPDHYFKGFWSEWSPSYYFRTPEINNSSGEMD
# T5: cynomolgus IL-7Rα expressed on cynomolgus T cells / leukocytes (cynomolgus, UniProt Q38IC7 21-459)
# T5 sequence: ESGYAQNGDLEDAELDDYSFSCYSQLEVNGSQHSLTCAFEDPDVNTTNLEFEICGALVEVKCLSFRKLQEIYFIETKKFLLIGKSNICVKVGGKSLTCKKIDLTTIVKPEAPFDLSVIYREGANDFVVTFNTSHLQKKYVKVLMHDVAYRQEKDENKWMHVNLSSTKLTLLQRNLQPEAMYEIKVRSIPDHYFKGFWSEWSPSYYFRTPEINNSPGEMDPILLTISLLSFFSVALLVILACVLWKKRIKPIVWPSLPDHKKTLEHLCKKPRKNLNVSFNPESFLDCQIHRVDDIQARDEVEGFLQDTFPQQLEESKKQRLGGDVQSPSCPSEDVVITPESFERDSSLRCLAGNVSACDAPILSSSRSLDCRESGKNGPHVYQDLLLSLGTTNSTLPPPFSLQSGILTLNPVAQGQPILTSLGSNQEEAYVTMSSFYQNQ
# Key:
# [1] = biological target: T1, his-tagged cynomolgus-IL7R …; assay: SPR (Biacore T200), pH 6.0 against pH 7.4
# Description: (§1) Briefly, experiments were performed on a BIACORE™ T200 instrument (GE Healthcare, Chicago, Ill., USA) in a running buffer consisting of 10 mM NaPO4, 130 mM NaCl, 0.05% p20 (PBS-T) at either pH 7.4 or pH 6.0. The chip surface was prepared by immobilizing protein A on flow cell 1, 2, 3, and 4 of a CM5 sensor chip using ethyl(dimethylaminopropyl) carbodiimide/NHS to a density of 4000 RU. […] Purified extracellular domain constructs (generated in house) of his-tagged human-IL7R or cynomolgus-IL7R were tested for binding using a 2 fold serial dilution from 500 nM to 7.8 nM, with 180 s association time and 360 s dissociation time at 30 μl/min. Regeneration between cycles was accomplished using 2×30 second injections of 10 mM glycine-HCL pH 1.5. The data were analyzed using the Biacore T200 Evaluation software (GE Healthcare), and fit to a 1:1 Langmuir model.
# [2] = biological target: T2, his-tagged human-IL7R extracellular …; assay: SPR (Biacore T200), pH 6.0 against pH 7.4
# Description: as §1
# [3] = biological target: T3, human IL-7Rα expressed on human T cells …; assay: flow cytometry binding, CD8+CD45RA- T cells in whole blood
# [4] = biological target: T3, human IL-7Rα expressed on human T cells …; assay: cell-based or functional assay
# [5] = biological target: T4, hIL-7R (Example 11); assay: SPR (Biacore), reference of the ratio [cont'd]
# Source text: (§2) Affinity (KD) of each variant binding to hIL-7R was obtained using this approach, and compared against the enrichment ratio (ER) obtained through NGS heat map analysis for the same variant.
# [6] = biological target: T1, his-tagged cynomolgus-IL7R …; assay: SPR (Biacore T200), antibody captured on protein A, his-tagged ECD as analyte, 37° C., pH 6.0
# Description: as §1
# [7] = biological target: T2, his-tagged human-IL7R extracellular …; assay: as above
# Description: as §1
# [8] = biological target: T5, cynomolgus IL-7Rα expressed on …; assay: cell-based or functional assay
# [9] = biological target: T3, human IL-7Rα expressed on human T cells …; assay: flow cytometry binding, CD4+CD45RA+ T cells in whole blood
# [10] = biological target: T1, his-tagged cynomolgus-IL7R …; assay: SPR (Biacore T200), antibody captured on protein A, his-tagged ECD as analyte, 37° C., pH 7.4
# Description: as §1
# [11] = biological target: T2, his-tagged human-IL7R extracellular …; assay: as above
# Description: as §1
# [12] = biological target: T4, hIL-7R (Example 11); assay: Biacore, mAb captured on anti-human IgG CM5 chip, hu IL-7R as analyte (top curve 33.3nM), HBS-P+ pH 7.4, 37 C
# Source text: as §2
# [13] = biological target: T5, cynomolgus IL-7Rα expressed on …; assay: flow cytometry, occupancy of IL-7Ra on CD4+CD45RA+ T cells of cynomolgus monkeys after a single i.v. dose, against serum concentration
# Description: To confirm the above cross-reactivity data, cellular binding and functional blockade were also assessed. […] Then, at day 8 post-administration, PBMCs were isolated from the animals.
# [14] = biological target: T3, human IL-7Rα expressed on human T cells …; assay: flow cytometry binding, CD8+CD45RA+ T cells in whole blood
# [15] = biological target: T3, human IL-7Rα expressed on human T cells …; assay: cell-based or functional assay
# [16] = biological target: T3, human IL-7Rα expressed on human T cells …; assay: flow cytometry binding, CD4+CD45RA- T cells in whole blood
binder,measurement,setting,value
"Anti-IL-7R Antibody (Antibody A) (antibody, human IgG1, kappa, V domains shown, also called 18B1; 18B1 antibody) VH: EVQLVESGGGLVQPGRSLRLSCAASGFTFDDHAMHWVRQAPGKGLEWVSGISWNSRGIGYADSVKGRFTIFRDNAKNSLYLQMNSLRAEDTALYYCAKDEYSRGYYVLDVWGQGTTVTVSS VL: AIQLTQSPSSLSASVGDRVTITCRASQGISSALAWYQQKPGKAPKLLIYDASSLESGVPSRFSGSGSGTDFTLTISSLQPEDFATYYCQQFNSYPLWITFGQGTRLEIKR",fold weaker binding at pH 6.0 than at pH 7.4,[1],~4 fold
same,fold weaker binding at pH 6.0 than at pH 7.4,[2],~4 fold
same,EC50,[3],1.9 nM
same,"pSTAT5 IC50, CD4+CD45RA+ T cells in whole blood, IL-7 (0.25 ng/mL)",[4],0.6 nM
same,"pSTAT5 IC50, CD4+CD45RA+ T cells in whole blood, IL-7 (2.0 ng/mL)",[4],2.1 nM
same,KD Relative to 18B1,[5],1
same,Kd,[6],7 nM
same,koff,[6],0.0016 s⁻¹
same,kon,[6],230000 M⁻¹ s⁻¹
same,Kd,[7],5.3 nM
same,koff,[7],0.0013 s⁻¹
same,kon,[7],240000 M⁻¹ s⁻¹
same,"IC50 of IL-7 mediated pSTAT5 activation against serum antibody concentration, cynomolgus monkeys",[8],~2
same,EC50,[9],1.4 nM
same,Kd,[10],1.7 nM
same,koff,[10],0.0005 s⁻¹
same,kon,[10],290000 M⁻¹ s⁻¹
same,Kd,[11],1.3 nM
same,koff,[11],0.0004 s⁻¹
same,kon,[11],310000 M⁻¹ s⁻¹
same,Kd,[12],1.4 nM
same,koff,[12],0.00152 s⁻¹
same,kon,[12],1.09e+06 M⁻¹ s⁻¹
same,EC50 (read off the curve),[13],~0.04 µg/mL
same,EC50,[14],2 nM
same,"pSTAT5 IC50, IL-7 stimulated CD4+CD45RA+ T cells, CD (n = 10)",[15],0.36 nM
same,"pSTAT5 IC50, IL-7 stimulated CD4+CD45RA+ T cells, NHV (n = 19)",[15],0.6 nM
same,"pSTAT5 IC50, IL-7 stimulated CD4+CD45RA+ T cells, UC (n = 21)",[15],0.34 nM
same,"pSTAT5 IC50, IL-7 stimulated CD4+CD45RA- T cells, CD (n = 10)",[15],0.36 nM
same,"pSTAT5 IC50, IL-7 stimulated CD4+CD45RA- T cells, NHV (n = 19)",[15],0.52 nM
same,"pSTAT5 IC50, IL-7 stimulated CD4+CD45RA- T cells, UC (n = 21)",[15],0.28 nM
same,"pSTAT5 IC50, IL-7 stimulated CD8+CD45RA+ T cells, CD (n = 10)",[15],0.29 nM
same,"pSTAT5 IC50, IL-7 stimulated CD8+CD45RA+ T cells, NHV (n = 19)",[15],0.43 nM
same,"pSTAT5 IC50, IL-7 stimulated CD8+CD45RA+ T cells, UC (n = 21)",[15],0.29 nM
same,"pSTAT5 IC50, IL-7 stimulated CD8+CD45RA- T cells, CD (n = 10)",[15],0.23 nM
same,"pSTAT5 IC50, IL-7 stimulated CD8+CD45RA- T cells, NHV (n = 19)",[15],0.38 nM
same,"pSTAT5 IC50, IL-7 stimulated CD8+CD45RA- T cells, UC (n = 21)",[15],0.22 nM
same,EC50,[16],3.3 nM

# Source: patent publication US20220017627A1 (Bristol-Myers Squibb, published 2022)
